Experimental data taken from PMC6535971 (ACS Central Science, 2019).
Where no end group is shown, it is not given here.

How the values were obtained:
MjYcaO [1] = biological target: T1, MjYcaO (Methanocaldococcus jannaschii, UniProt Q58494); assay: Competition FP binding assay; conditions: competitive FP, MBP-tagged 11-mer variant against FITC-labeled 11-mer peptide
T1 sequence (Q58494 1-385): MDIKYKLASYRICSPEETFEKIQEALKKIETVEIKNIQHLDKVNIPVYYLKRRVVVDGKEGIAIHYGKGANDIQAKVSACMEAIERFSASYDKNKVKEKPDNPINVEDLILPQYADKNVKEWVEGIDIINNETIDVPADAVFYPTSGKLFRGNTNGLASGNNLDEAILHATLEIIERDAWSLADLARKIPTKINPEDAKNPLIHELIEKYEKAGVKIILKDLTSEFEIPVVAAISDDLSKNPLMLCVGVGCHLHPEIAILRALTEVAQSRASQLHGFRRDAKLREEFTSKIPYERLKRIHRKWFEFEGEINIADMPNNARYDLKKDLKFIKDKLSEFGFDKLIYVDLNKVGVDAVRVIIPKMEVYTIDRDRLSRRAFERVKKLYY

MjYcaO [2] = biological target: T1, MjYcaO; assay: Cyclodehydration reaction, MALDI-TOF-MS; assay type: biochemical; conditions: wild-type MjYcaO and ATP at pH 7.5, no added anion
MkYcaO = assay: Cyclodehydration reaction, MALDI-TOF-MS; assay type: biochemical, Methanopyrus kandleri; conditions: pH 7.0 with additional phosphate
[3] = biological target: Methanocaldococcus jannaschii YcaO (MjYcaO), wild type (Methanocaldococcus jannaschii) (UniProt Q58494); assay: fluorescence polarisation
[4] = biological target: T2, Methanocaldococcus jannaschii YcaO (MjYcaO), wild type (Methanocaldococcus jannaschii, UniProt Q58494 1-385); assay: fluorescence polarisation
T2 sequence: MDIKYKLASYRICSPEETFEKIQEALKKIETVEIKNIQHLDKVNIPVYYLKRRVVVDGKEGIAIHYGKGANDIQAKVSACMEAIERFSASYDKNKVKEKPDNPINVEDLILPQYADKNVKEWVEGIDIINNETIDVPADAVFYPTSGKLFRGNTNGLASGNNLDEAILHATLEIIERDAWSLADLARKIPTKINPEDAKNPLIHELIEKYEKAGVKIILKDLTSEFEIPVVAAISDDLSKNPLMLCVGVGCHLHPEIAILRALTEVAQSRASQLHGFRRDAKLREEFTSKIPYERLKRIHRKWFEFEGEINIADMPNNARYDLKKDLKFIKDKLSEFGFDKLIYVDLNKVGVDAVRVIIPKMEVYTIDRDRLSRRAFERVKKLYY

MjYcaO W303A variant = biological target: T3, MjYcaO W303A variant (Methanocaldococcus jannaschii, UniProt Q58494 1-385, W303A); assay: fluorescence polarisation
T3 sequence: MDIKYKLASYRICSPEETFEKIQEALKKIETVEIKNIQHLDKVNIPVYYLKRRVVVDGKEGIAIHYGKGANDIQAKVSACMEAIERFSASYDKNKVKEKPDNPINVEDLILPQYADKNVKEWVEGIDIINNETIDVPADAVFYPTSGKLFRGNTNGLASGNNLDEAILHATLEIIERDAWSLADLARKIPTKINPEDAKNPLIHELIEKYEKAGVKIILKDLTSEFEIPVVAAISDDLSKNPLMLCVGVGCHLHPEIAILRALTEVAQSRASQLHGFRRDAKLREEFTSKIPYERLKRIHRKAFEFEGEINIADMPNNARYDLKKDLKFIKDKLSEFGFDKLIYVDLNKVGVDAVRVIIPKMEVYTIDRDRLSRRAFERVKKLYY

MjYcaO W180F variant = biological target: T4, MjYcaO W180F variant (Methanocaldococcus jannaschii, UniProt Q58494 1-385, W180F); assay: fluorescence polarisation
T4 sequence: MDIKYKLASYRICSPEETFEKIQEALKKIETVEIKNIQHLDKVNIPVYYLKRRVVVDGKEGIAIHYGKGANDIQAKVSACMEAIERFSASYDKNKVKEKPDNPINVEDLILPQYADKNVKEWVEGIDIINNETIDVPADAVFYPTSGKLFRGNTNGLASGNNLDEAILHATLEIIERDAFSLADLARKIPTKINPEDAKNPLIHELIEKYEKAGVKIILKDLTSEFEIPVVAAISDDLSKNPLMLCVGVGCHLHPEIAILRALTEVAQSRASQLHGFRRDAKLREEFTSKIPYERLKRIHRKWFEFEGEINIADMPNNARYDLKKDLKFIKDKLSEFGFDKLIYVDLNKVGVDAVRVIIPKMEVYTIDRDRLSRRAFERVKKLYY

MjYcaO W180V variant = biological target: T5, MjYcaO W180V variant (Methanocaldococcus jannaschii, UniProt Q58494 1-385, W180V); assay: fluorescence polarisation
T5 sequence: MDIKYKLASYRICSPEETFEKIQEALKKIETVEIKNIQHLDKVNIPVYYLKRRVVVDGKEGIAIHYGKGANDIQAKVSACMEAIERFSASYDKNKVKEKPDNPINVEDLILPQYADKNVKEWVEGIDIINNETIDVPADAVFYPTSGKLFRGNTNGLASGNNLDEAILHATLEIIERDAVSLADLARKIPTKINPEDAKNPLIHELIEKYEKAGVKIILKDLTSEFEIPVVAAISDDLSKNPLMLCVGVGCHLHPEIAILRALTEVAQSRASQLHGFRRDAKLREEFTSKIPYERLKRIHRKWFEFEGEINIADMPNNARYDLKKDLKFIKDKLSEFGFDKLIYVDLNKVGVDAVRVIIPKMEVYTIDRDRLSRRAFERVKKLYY

MjYcaO Y66A variant = biological target: T6, MjYcaO Y66A variant (Methanocaldococcus jannaschii, UniProt Q58494 1-385, Y66A); assay: fluorescence polarisation
T6 sequence: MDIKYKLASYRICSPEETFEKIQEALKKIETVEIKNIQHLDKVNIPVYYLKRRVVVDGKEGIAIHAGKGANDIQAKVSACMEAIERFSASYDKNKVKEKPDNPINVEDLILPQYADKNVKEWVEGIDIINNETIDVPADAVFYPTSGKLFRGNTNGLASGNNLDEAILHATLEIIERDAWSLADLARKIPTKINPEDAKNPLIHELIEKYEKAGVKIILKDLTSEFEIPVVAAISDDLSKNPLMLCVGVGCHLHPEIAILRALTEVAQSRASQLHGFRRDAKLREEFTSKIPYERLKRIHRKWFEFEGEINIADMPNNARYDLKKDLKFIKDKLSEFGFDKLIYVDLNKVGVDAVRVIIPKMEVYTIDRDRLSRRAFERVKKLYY

MjYcaO Y66F variant = biological target: T7, MjYcaO Y66F variant (Methanocaldococcus jannaschii, UniProt Q58494 1-385, Y66F); assay: fluorescence polarisation
T7 sequence: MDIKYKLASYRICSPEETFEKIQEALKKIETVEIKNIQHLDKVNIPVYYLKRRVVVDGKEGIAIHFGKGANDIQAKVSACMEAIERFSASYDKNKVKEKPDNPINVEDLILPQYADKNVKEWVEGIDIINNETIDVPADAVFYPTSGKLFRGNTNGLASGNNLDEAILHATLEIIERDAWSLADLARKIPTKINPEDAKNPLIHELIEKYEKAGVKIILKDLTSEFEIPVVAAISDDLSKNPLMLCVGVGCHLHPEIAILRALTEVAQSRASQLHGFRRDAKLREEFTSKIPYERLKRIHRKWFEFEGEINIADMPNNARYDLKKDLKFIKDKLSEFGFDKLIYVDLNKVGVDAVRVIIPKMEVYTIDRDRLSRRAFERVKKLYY

MjYcaO Y66L variant = biological target: T8, MjYcaO Y66L variant (Methanocaldococcus jannaschii, UniProt Q58494 1-385, Y66L); assay: fluorescence polarisation
T8 sequence: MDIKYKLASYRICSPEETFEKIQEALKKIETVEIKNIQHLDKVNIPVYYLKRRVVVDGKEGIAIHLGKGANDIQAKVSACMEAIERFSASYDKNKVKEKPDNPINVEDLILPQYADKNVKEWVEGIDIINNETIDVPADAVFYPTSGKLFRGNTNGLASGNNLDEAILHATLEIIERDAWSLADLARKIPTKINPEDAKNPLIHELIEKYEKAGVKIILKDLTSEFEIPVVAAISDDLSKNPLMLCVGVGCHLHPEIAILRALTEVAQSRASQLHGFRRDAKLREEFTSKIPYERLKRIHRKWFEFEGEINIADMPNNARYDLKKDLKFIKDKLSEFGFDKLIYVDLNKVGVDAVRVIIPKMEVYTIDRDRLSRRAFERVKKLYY

MjYcaO Y66G variant = biological target: T9, MjYcaO Y66G variant (Methanocaldococcus jannaschii, UniProt Q58494 1-385, Y66G); assay: fluorescence polarisation
T9 sequence: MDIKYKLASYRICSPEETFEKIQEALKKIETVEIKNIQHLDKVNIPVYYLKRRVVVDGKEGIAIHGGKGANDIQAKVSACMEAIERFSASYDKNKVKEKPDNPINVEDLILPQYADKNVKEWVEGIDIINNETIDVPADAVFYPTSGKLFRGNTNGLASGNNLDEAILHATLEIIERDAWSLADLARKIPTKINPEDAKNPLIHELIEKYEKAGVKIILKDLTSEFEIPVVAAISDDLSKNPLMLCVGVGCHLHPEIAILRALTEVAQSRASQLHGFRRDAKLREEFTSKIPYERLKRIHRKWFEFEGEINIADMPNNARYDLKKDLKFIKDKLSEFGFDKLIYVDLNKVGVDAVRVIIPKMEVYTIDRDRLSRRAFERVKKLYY

[5] = biological target: T2, Methanocaldococcus jannaschii YcaO …; assay: fluorescence polarisation; remark: listed apart in the source
[6] = biological target: T2, Methanocaldococcus jannaschii YcaO …; assay: crystal structure

Molecule: RLGFYGCDLQD [Y(+1)C 11-mer]
- increase in Ki relative to wild-type (MjYcaO [1]): 2 fold
- cyclodehydration (change of peptide mass) (MjYcaO [2]): almost no change
- cyclodehydration (MkYcaO): enzyme-dependent conversion to the dehydrated species

Molecule: MBP-tagged MjMcrA peptide, Leu(-4) to Ala
- fold increase in Ki against the wild-type peptide [3]: > 6 fold

Molecule: MBP-tagged MjMcrA peptide, F(-2)A variant
- fold increase in Ki against the wild-type peptide [3]: 3 fold

Molecule: MBP-tagged MjMcrA peptide, Gly(-3) to Ala
- fold increase in Ki against the wild-type peptide [3]: > 6 fold

Molecule: MjMcrA Y(+1)C 11-mer peptide …
- fold increase in Ki against the wild-type peptide [3]: 2 fold

Molecule: MBP-tagged MjMcrA peptide, D(+2)A variant
- fold increase in Ki against the wild-type peptide [3]: 4 fold

Molecule: MjMcrA Y(+1)S 11-mer peptide
- fold increase in Ki against the wild-type peptide [3]: 2 fold

B1: FITC-labeled 11-mer MjMcrA peptide RLGFYGYDLQD (without the double Gly linker) (peptide)
peptide: RLGFYGYDLQD
modifications: not fully specified (N-terminus); also: FITC label (site not given here)
- binding result [4]: binds

B2: FITC-labeled 13-mer MjMcrA peptide GG-RLGFYGYDLQD (peptide)
peptide: GGRLGFYGYDLQD
modifications: not fully specified (N-terminus); also: FITC label (site not given here)
- binding result (MjYcaO W303A variant): binds
- binding result (MjYcaO W180F variant): binds
- binding result (MjYcaO W180V variant): binds
- binding result (MjYcaO Y66A variant): binds
- binding result (MjYcaO Y66F variant): binds
- binding result (MjYcaO Y66L variant): binds
- binding result (MjYcaO Y66G variant): binds
- binding result [5]: binds

B3: MjMcrA 11-mer peptide RLGFYGYDLQD (peptide)
peptide: RLGFYGYDLQD
- binding result [6]: binds
